Molecular target: HLA-A*02:01 (Homo sapiens, UniProt P04439, D140Y/D185E/D98H/E176V/E277Q/G131W/G231S/I119V/I121R/I166T/I218V/L300P/L318F/N151K/N90K/P208A/P217A/Q86G/Q94H/R138H/R169H/T345S)
Test: MHC binding assay (UV-ligand exchange, ELISA of stabilized MHC complexes)
Details: MHC class I binding score; binding to HLA-A*02:01 ranged by peptide exchange yield (UV-ligand exchange, ELISA)
How it was run: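 Binding scored as exchange yield, detected via β2m of stabilized complexes in an HRP/TMB ELISA read at 450 nm after streptavidin capture of 100-fold diluted monomers for 1 h at 37 °C. Complexes came from UV irradiation cleaving a photolabile peptide, exchanged for the candidate.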

Row | Substance | Peptide exchange
1 | 617 (ALMYESEKVGV; listed as Homo sapiens) [compound 617] | ″+++″ (≥50% = +++)
2 | 344 (YLQDQHLLLTV; listed as Homo sapiens) [compound 344] | ″+++″ (≥50% = +++)
3 | 594 (IMLKGDNITL; listed as Homo sapiens) [compound 594] | ″+++″ (≥50% = +++)
4 | 550 (FLYDEIEAEVNL; listed as Homo sapiens) [compound 550] | ″+++″ (≥50% = +++)
5 | 219 (KLSDIGITV; listed as Homo sapiens) [compound 219] | ″+++″ (≥50% = +++)
6 | 298 (VMITKLVEV; listed as Homo sapiens) [compound 298] | ″+++″ (≥50% = +++)
7 | 403 (KLYDRILRV; listed as Homo sapiens) [compound 403] | ″++″ (≥20% = ++)
8 | 526 (RLAEVGQYEQV; listed as Homo sapiens) [compound 526] | ″++″ (≥20% = ++)
9 | 167 (KVLEVTEEFGV; listed as Homo sapiens) [compound 167] | ″+++″ (≥50% = +++)
10 | 83 (ILAPTVMMI; listed as Homo sapiens) [compound 83] | ″+++″ (≥50% = +++)
11 | 484 (SLIEKVTQL; listed as Homo sapiens) [compound 484] | ″+++″ (≥50% = +++)
12 | 320 (KMFEFVEPLL; listed as Homo sapiens) [compound 320] | ″++++″ (≥75% = ++++)
13 | 124 (ALYETELADA; listed as Homo sapiens) [compound 124] | ″++″ (≥20% = ++)
14 | 377 (FLLDSSASV; listed as Homo sapiens) [compound 377] | ″++″ (≥20% = ++)
15 | 296 (FMEGAIIYV; listed as Homo sapiens) [compound 296] | ″+++″ (≥50% = +++)
16 | 45 (SLWQDIPDV; listed as Homo sapiens) [compound 45] | ″+++″ (≥50% = +++)
17 | 582 (TLCDVILMV; listed as Homo sapiens) [compound 582] | ″+++″ (≥50% = +++)
18 | 218 (SALEELVNV; listed as Homo sapiens) [compound 218] | ″++″ (≥20% = ++)
19 | 539 (ALFDAQAQV; listed as Homo sapiens) [compound 539] | ″+++″ (≥50% = +++)
20 | 399 (YLFEPLYHV; listed as Homo sapiens) [compound 399] | ″+++″ (≥50% = +++)
21 | 151 (KILQQLVTL; listed as Homo sapiens) [compound 151] | ″+++″ (≥50% = +++)
22 | 85 (KMSELRVTL; listed as Homo sapiens) [compound 85] | ″+++″ (≥50% = +++)
23 | 217 (ALIHPVSTV; listed as Homo sapiens) [compound 217] | ″++″ (≥20% = ++)
24 | 494 (ALQPEPIKV; listed as Homo sapiens) [compound 494] | ″++″ (≥20% = ++)
25 | 347 (SLFKHDPAAWEA; listed as Homo sapiens) [compound 347] | ″++++″ (≥75% = ++++)
26 | 95 (SVIPQIQKV; listed as Homo sapiens) [compound 95] | ″+++″ (≥50% = +++)

Row | Substance | Peptide exchange
27 | 165 (SLLDEIRAV; listed as Homo sapiens) [compound 165] | ″+++″ (≥50% = +++)
28 | 561 (YLQLTQSEL; listed as Homo sapiens) [compound 561] | ″+++″ (≥50% = +++)
29 | 295 (VLDRESPNV; listed as Homo sapiens) [compound 295] | ″+++″ (≥50% = +++)
30 | 559 (VTVPPGPSL; listed as Homo sapiens) [compound 559] | ″++″ (≥20% = ++)
31 | 312 (IISDLTIAL; listed as Homo sapiens) [compound 312] | ″+++″ (≥50% = +++)
32 | 575 (YLISQVEGHQV; listed as Homo sapiens) [compound 575] | ″+++″ (≥50% = +++)
33 | 326 (FLPEALDFV; listed as Homo sapiens) [compound 326] | ″+++″ (≥50% = +++)
34 | 486 (AVMESIQGV; listed as Homo sapiens) [compound 486] | ″+++″ (≥50% = +++)
35 | 227 (ALMNTLLYL; listed as Homo sapiens) [compound 227] | ″++″ (≥20% = ++)
36 | 565 (ALQETPTSV; listed as Homo sapiens) [compound 565] | ″++″ (≥20% = ++)
37 | 449 (KLAEGLDIQL; listed as Homo sapiens) [compound 449] | ″+++″ (≥50% = +++)
38 | 591 (SMAELDIKL; listed as Homo sapiens) [compound 591] | ″+++″ (≥50% = +++)
39 | 299 (YLLETSGNL; listed as Homo sapiens) [compound 299] | ″+++″ (≥50% = +++)
40 | 10 (FLATFPLAAV; listed as Homo sapiens) [compound 10] | ″++++″ (≥75% = ++++)
41 | 351 (SLIPNLRNV; listed as Homo sapiens) [compound 351] | ″+++″ (≥50% = +++)
42 | 41 (SLMPHIPGL; listed as Homo sapiens) [compound 41] | ″+++″ (≥50% = +++)
43 | 90 (TLLQIIETV; listed as Homo sapiens) [compound 90] | ″+++″ (≥50% = +++)
44 | 53 (KMIETDILQKV; listed as Homo sapiens) [compound 53] | ″++++″ (≥75% = ++++)
45 | 313 (VLFDDELLMV; listed as Homo sapiens) [compound 313] | ″+++″ (≥50% = +++)
46 | 257 (SIFSAFLSV; listed as Homo sapiens) [compound 257] | ″+++″ (≥50% = +++)
47 | 73 (NIFDLQIYV; listed as Homo sapiens) [compound 73] | ″+++″ (≥50% = +++)
48 | 440 (ALADGVTMQV; listed as Homo sapiens) [compound 440] | ″++″ (≥20% = ++)
49 | 342 (HIYDKVMTV; listed as Homo sapiens) [compound 342] | ″+++″ (≥50% = +++)
50 | 515 (LLQELVLFL; listed as Homo sapiens) [compound 515] | ″+++″ (≥50% = +++)
51 | 475 (LLLNEEALAQI; listed as Homo sapiens) [compound 475] | ″+++″ (≥50% = +++)
52 | 343 (SLLEVNEESTV; listed as Homo sapiens) [compound 343] | ″+++″ (≥50% = +++)

Row | Substance | Peptide exchange
53 | 504 (GLSDGNPSL; listed as Homo sapiens) [compound 504] | ″++″ (≥20% = ++)
54 | 228 (AMQEYIAVV; listed as Homo sapiens) [compound 228] | ″++″ (≥20% = ++)
55 | 82 (FLSSVTYNL; listed as Homo sapiens) [compound 82] | ″+++″ (≥50% = +++)
56 | 121 (GVVDPRAISVL; listed as Homo sapiens) [compound 121] | ″++″ (≥20% = ++)
57 | 108 (ALFPGVALLLA; listed as Homo sapiens) [compound 108] | ″++++″ (≥75% = ++++)
58 | 522 (TLWYRSPEV; listed as Homo sapiens) [compound 522] | ″++″ (≥20% = ++)
59 | 251 (ALYTGFSILV; listed as Homo sapiens) [compound 251] | ″++″ (≥20% = ++)
60 | 450 (FMIDASVHPTL; listed as Homo sapiens) [compound 450] | ″+++″ (≥50% = +++)
61 | 142 (FLFATPVFI; listed as Homo sapiens) [compound 142] | ″+++″ (≥50% = +++)
62 | 541 (SMLEPVPEL; listed as Homo sapiens) [compound 541] | ″+++″ (≥50% = +++)
63 | 64 (YAAPGGLIGV; listed as Homo sapiens) [compound 64] | ″++″ (≥20% = ++)
64 | 463 (SLVESHLSDQLTL; listed as Homo sapiens) [compound 463] | ″+++″ (≥50% = +++)
65 | 430 (HLYSSIEHLTT; listed as Homo sapiens) [compound 430] | ″+++″ (≥50% = +++)
66 | 601 (SAFPFPVTV; listed as Homo sapiens) [compound 601] | ″+++″ (≥50% = +++)
67 | 576 (ILLNNSGQIKL; listed as Homo sapiens) [compound 576] | ″++++″ (≥75% = ++++)
68 | 12 (SLWPDPMEV; listed as Homo sapiens) [compound 12] | ″+++″ (≥50% = +++)
69 | 225 (SLLKVLPAL; listed as Homo sapiens) [compound 225] | ″+++″ (≥50% = +++)
70 | 560 (ALWDIETGQQTTT; listed as Homo sapiens) [compound 560] | ″+++″ (≥50% = +++)
71 | 47 (ILLSVPLLVV; listed as Homo sapiens) [compound 47] | ″++″ (≥20% = ++)
72 | 496 (FLVEKQPPQV; listed as Homo sapiens) [compound 496] | ″+++″ (≥50% = +++)
73 | 62 (VLLDVSAGQLLM; listed as Homo sapiens) [compound 62] | ″++++″ (≥75% = ++++)
74 | 255 (VLASYNLTV; listed as Homo sapiens) [compound 255] | ″+++″ (≥50% = +++)
75 | 458 (SLIDKLYNI; listed as Homo sapiens) [compound 458] | ″++″ (≥20% = ++)
76 | 119 (FLYIGDIVSL; listed as Homo sapiens) [compound 119] | ″++++″ (≥75% = ++++)
77 | 254 (TLLAFIMEL; listed as Homo sapiens) [compound 254] | ″+++″ (≥50% = +++)
78 | 364 (LLQNEQFEL; listed as Homo sapiens) [compound 364] | ″+++″ (≥50% = +++)

From patent publication US10472401B2, “Peptides and combination of peptides for use in immunotherapy against ovarian cancer and other cancers” (immatics biotechnologies GmbH, priority 2015, dated 2019)
